Assay results published in paper PMC3679926.

B1: p53RE wt, unlabeled competitor (dsDNA)
DNA 1: ACTGAGCCATGGGCATGTCTGAACACAACA
DNA 2: TGTTGTGTTCAGACATGCCCATGGCTCAGT
B2: p53RE wt (miR-205 upstream p53BS) (dsDNA)
DNA 1: ACTGAGCCATGGGCATGTCTGAACACAACA
DNA 2: TGTTGTGTTCAGACATGCCCATGGCTCAGT
B3: p53RE MUT (dsDNA)
DNA 1: ACTGAGCCATCCCGGCCGGCGAACACAACA
DNA 2: TGTTGTGTTCGCCGGCCGGGATGGCTCAGT

Key:
p53 (rp53) [1] = biological target: T1, p53 (rp53) (UniProt P04637 1-393); assay: competition
p53 (rp53) [2] = biological target: T1, p53 (rp53); assay: EMSA

T1 sequence (P04637 whole entry): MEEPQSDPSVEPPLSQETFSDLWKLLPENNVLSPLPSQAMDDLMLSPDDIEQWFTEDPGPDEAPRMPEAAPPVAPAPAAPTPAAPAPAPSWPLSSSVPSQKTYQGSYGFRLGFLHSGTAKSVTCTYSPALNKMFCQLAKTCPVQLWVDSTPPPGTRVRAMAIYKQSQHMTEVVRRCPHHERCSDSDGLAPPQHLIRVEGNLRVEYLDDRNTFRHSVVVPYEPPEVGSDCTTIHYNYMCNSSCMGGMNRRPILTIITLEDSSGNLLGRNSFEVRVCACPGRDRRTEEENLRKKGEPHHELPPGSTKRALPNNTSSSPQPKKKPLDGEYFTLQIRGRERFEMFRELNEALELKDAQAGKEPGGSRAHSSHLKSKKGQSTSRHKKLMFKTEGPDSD

Row | Binder | binding result (p53 (rp53) [1]) | binding result (p53 (rp53) [2])
1 | B1 | binds | –
2 | B2 | – | binds
3 | B3 | – | no binding
